Assay [1] deals with human Tim-3 (T cell Immunoglobulin- and Mucin domain-containing molecule 3) (human) (UniProt Q8TDQ0). Briefly: FACS, 10 ug/ml PE-labeled antibody on SR cells; geom. mean MFI sample / isotype control.
The target is the same in assay [2]. Briefly: FACS, 10 ug/ml PE-labeled antibody on CMK cells; geom. mean MFI sample / isotype control.
For assay [3] the target is unchanged. Briefly: FACS, 10 ug/ml PE-labeled antibody on KG-1 cells; geom. mean MFI sample / isotype control.
Assay [4] has the same target. Briefly: FACS, 10 ug/ml PE-labeled antibody on TF-1 cells; geom. mean MFI sample / isotype control.
Assay [5] shares this target. Briefly: FACS, 10 ug/ml PE-labeled antibody on SR cells; geom. mean MFI sample minus isotype control.
For assay [6] the target is unchanged. Briefly: FACS, 10 ug/ml PE-labeled antibody on CMK cells; geom. mean MFI sample minus isotype control.
Assay [7] shares this target. Briefly: FACS, 10 ug/ml PE-labeled antibody on Pfeiffer cells; geom. mean MFI sample / isotype control.
The target is the same in assay [8]. Briefly: FACS, 10 ug/ml PE-labeled antibody on KG-1 cells; geom. mean MFI sample minus isotype control.
Assay [9] shares this target. Briefly: FACS, 10 ug/ml PE-labeled antibody on Kasumi-1 cells; geom. mean MFI sample / isotype control.
For assay [10] the target is unchanged. Briefly: FACS, 10 ug/ml PE-labeled antibody on TF-1 cells; geom. mean MFI sample minus isotype control.
Assay [11] shares this target. Briefly: FACS, 10 ug/ml PE-labeled antibody on RPMI-8226 cells; geom. mean MFI sample / isotype control.
For assay [12] the target is unchanged. Briefly: FACS, 10 ug/ml PE-labeled antibody on Karpas-299 cells; geom. mean MFI sample / isotype control.
Assay [13] shares this target. Briefly: FACS, 10 ug/ml PE-labeled antibody on Pfeiffer cells; geom. mean MFI sample minus isotype control.
Assay [14] shares this target. Briefly: FACS, 10 ug/ml PE-labeled antibody on Kasumi-1 cells; geom. mean MFI sample minus isotype control.
Assay [15] has the same target. Briefly: FACS, 10 ug/ml PE-labeled antibody on RPMI-8226 cells; geom. mean MFI sample minus isotype control.
Assay [16] shares this target. Briefly: FACS, 10 ug/ml PE-labeled antibody on Karpas-299 cells; geom. mean MFI sample minus isotype control.
The target is the same in assay [17]. Briefly: FACS, 10 ug/ml PE-labeled antibody on EOL-1 cells (24h pre-treated with 10 ng/ml PMA); geom. mean MFI sample / isotype control.
Assay [18] shares this target. Briefly: FACS, 10 ug/ml PE-labeled antibody on EOL-1 cells (24h pre-treated with 10 ng/ml PMA); geom. mean MFI sample minus isotype control.

human Tim-3 (T cell Immunoglobulin- and Mucin domain-containing molecule 3) (human), sequence (Q8TDQ0 22-301): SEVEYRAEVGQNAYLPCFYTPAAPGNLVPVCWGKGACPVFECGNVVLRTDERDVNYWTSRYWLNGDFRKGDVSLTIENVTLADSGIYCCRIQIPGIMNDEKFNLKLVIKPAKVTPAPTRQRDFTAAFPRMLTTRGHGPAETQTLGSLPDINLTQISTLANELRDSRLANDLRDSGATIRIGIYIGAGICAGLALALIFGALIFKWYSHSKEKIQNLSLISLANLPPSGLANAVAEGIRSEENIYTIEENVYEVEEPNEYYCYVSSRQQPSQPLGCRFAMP

Regarding “PE labeled anti-TIM3 (clone 344823, R&D) (antibody)”, the RFI (ratio of specific binding) was 19 RFI in assay [1]; 5 RFI in assay [2]; 5 RFI in assay [3]; 3 RFI in [4]; 51 RFI in [7]; 4 RFI in [9]. The RFI (ratio of specific binding) in [11] was 23 RFI; in [12], 3 RFI; in [17] it was 2 RFI. The MFI (specific binding) was found to be 1050 MFI in assay [5]; 384 MFI in [6]; 363 MFI in assay [8]; 229 MFI in assay [10]; 3610 MFI in [13]; 164 MFI in assay [14]. In addition, the results for the MFI (specific binding) in assay [15], in assay [16] and in [18] were 1790 MFI, 247 MFI and 207 MFI, respectively.
